Tests used:
[1] = target: T1, NIK624-947 (C-terminal domain of NIK) (human, UniProt Q99558 624-947); assay: yeast two-hybrid, NIK624-947 as bait, 41 MDD as prey
T1 construct: GAL4 DNA-BD or AD fusion in the two-hybrid tests; expressed from pcdnNIK (co-IP) or pcS3MTdnNIK (reporter assay) in 293-T cells; also called C-terminus of NIK; NIK C-terminus
Text: (§1) To define the domain of cγc responsible for binding NIK, deletion mutants of cγc have been created and their binding to NIK analysed (FIG. 1). The deletion mutants were created by sequentially introduction of stop codons in the cytoplasmic domain of cγc, in gaps of 10-20 amino acids. The DNA encoding the full-length cγc or its deletion mutants were introduced into the pGADT7 prey vector (Clontech) for testing their binding to NIK in the SFY526 heterologous yeast strain by the two hybrid assay. The SFY526 yeast strain is […] for TRP and Leu. pGBKT plasmids (bait vector) have the Trp1 wild type gene and pGAD has the wild type Leu2 gene. Thus, only doubly transfected yeast will grow on selective Leu Trp media. Functional GAL4 will be restored in doubly transfected yeast when the chimeric proteins fused to GAL4 domains interact, bringing the activation domain and DNA binding domain of GAL4 to close proximity. The level of LAC-Z expression is indicative of the strength of the protein-protein interaction. Lac-Z activity was assessed by the standard beta-gal/colony lift filter assay (Clontech, Yeast Protocol Handbook, Chapter VI).
(§2) The binding of 41 MDD polypeptide to full length NIK or C-terminus NIK was tested in both orientations (i.e. 41 MDD as the pray and NIK as the bait and vice versa). […]

[2] = target: T2, NF-κB-inducing kinase, NIK (MAP3K14), full length (human, UniProt Q99558 1-947); assay: yeast two-hybrid, NIK as bait, 41 MDD as prey
T2 construct: range 1-947; also called full length NIK; endogenous NIK
Text: as §1, §2

[3] = target: T2, NF-κB-inducing kinase, NIK (MAP3K14), …; assay: yeast two-hybrid

T2 sequence (Q99558 whole entry): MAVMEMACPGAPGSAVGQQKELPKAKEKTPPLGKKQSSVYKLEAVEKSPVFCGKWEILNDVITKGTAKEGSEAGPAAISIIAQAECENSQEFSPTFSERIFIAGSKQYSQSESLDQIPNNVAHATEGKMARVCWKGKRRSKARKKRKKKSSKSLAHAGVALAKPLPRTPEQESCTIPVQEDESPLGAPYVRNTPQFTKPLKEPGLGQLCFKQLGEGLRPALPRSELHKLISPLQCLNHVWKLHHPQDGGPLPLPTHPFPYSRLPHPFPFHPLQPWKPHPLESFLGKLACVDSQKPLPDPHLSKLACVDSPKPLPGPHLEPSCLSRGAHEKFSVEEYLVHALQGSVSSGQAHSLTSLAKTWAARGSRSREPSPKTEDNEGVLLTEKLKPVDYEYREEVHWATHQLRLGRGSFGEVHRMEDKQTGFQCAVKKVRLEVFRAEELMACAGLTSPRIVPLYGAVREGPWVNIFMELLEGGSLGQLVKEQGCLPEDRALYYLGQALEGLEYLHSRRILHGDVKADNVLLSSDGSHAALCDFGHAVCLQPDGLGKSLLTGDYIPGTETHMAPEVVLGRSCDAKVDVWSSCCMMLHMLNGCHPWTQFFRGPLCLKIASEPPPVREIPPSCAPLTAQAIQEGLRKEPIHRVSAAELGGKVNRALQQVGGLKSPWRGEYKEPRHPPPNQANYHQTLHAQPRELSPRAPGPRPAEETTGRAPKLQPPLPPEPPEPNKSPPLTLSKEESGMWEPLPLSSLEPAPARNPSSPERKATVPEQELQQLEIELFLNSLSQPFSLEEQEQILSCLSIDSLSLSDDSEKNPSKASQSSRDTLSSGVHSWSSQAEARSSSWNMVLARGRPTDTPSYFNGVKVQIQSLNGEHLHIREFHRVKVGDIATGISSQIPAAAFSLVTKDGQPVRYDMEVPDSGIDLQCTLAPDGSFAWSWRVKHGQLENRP
T1 sequence (Q99558 624-947 limits assumed): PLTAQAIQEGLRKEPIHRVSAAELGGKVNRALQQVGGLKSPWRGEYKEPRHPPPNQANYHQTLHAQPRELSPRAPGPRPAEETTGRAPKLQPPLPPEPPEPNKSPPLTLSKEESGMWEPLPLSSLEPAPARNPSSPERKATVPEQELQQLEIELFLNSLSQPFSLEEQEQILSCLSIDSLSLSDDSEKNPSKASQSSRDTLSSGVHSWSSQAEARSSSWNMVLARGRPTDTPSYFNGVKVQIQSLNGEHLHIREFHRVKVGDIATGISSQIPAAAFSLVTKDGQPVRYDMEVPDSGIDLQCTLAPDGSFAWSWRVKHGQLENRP

Row | binding result [1] | binding result [2] | binding result [3] | Binder
1 | binds | binds | – | LCLVSEIPPKGGALGEGPGASPCNQHSPYWAPPCYTLKPET (GAL4 fusion (bait or prey) in two-hybrid; also called 41 amino acid polypeptide from the membrane distal domain of cγc) [cγc 329-369 (41 MDD polypeptide)]
2 | – | – | binds | WLERTMPRIPTLKNLEDLVTEYHGNFSAWSGVSKGLAESLQPDY (Two-hybrid constructs comprising intracellular fragments close to the membrane proximal domain) [44MPD (cγc membrane proximal domain, residues 282-325)]
